From PMC8809517, “Cofactor-independent RNA editing by a synthetic S-type PPR protein”

Experiments:
Test in all cases: high-throughput RNA pulldown from lysate on Ni-NTA beads; HRP: 50 mM Tris pH 8, 150 mM NaCl, 1 mM beta-mercaptoethanol, 50 ug/ml BSA, 3 ug/ml yeast RNA, 0.5% heparin; ITC and FP: Tris pH 8, 200 mM KCl, 5% glycerol; MST: 50 mM Tris pH 8, 200 mM NaCl, 1 mM DTT, BSA, heparin, 0.05% Tween 20
Conditions in all cases: tags: N-terminal His-eGFP
[1] = target: T1, GFP-9S library array, motif 4 ND N98T;D124Y (synthetic construct, N98T;D124Y)
T1 chain: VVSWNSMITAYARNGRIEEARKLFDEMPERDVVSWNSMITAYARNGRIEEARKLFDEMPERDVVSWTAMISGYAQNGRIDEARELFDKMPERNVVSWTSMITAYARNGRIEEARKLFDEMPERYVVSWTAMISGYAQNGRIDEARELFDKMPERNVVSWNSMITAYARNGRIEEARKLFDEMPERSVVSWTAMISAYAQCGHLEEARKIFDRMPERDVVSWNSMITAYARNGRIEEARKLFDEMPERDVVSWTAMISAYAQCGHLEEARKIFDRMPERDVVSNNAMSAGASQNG

[2] = target: T2, GFP-9S library array, motif 4 ND N98P;D124F (synthetic construct, N98P;D124F)
T2 chain: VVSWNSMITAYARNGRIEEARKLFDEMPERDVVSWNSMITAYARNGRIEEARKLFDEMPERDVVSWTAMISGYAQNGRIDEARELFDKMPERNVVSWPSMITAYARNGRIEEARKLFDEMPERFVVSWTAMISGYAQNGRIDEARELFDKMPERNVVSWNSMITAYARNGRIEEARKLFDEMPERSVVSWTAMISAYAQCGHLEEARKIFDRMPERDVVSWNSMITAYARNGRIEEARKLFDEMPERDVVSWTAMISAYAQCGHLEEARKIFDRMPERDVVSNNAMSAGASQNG

[3] = target: T3, GFP-9S library array, motif 4 ND N98C;D124R (synthetic construct, N98C;D124R)
T3 chain: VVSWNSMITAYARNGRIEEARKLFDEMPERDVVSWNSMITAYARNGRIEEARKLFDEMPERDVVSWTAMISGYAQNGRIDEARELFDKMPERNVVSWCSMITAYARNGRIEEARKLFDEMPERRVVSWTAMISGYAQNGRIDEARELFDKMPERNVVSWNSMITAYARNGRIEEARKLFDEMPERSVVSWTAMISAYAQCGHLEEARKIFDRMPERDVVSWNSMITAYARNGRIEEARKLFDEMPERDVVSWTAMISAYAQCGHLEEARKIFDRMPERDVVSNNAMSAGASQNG

[4] = target: T4, GFP-9S library array, motif 4 ND N98Q;D124V (synthetic construct, N98Q;D124V)
T4 chain: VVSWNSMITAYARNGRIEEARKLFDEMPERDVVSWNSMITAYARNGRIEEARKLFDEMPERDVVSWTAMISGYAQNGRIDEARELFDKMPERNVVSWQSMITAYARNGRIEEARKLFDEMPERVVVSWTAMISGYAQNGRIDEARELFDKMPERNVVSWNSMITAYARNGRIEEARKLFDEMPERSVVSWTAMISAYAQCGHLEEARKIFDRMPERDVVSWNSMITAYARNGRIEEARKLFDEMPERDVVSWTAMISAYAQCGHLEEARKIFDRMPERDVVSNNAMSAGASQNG

[5] = target: T5, GFP-9S library array, motif 4 ND N98G;D124Y (synthetic construct, N98G;D124Y)
T5 chain: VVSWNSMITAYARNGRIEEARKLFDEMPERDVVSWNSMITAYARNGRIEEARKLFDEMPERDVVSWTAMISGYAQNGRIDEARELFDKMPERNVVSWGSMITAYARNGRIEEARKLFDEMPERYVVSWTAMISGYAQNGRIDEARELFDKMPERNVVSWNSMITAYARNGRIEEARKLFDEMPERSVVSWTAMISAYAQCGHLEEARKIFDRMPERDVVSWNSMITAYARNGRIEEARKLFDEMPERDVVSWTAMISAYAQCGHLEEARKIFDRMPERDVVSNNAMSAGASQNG

| Binder | Kd ([1]; label: 5' Cy5) [nM] | Kd ([2]; label: 5' Cy5) [nM] | Kd ([3]; label: 5' Cy5) [nM] | Kd ([4]; label: 5' Cy5) [nM] | Kd ([5]; label: 5' Cy5) [nM] | Kd ([1]; label: 5' IRDye 800CW) [nM] | Kd ([2]; label: 5' IRDye 800CW) [nM] | Kd ([3]; label: 5' IRDye 800CW) [nM] | Kd ([4]; label: 5' IRDye 800CW) [nM] | Kd ([5]; label: 5' IRDye 800CW) [nM] |
| --- | --- | --- | --- | --- | --- | --- | --- | --- | --- | --- |
| AUUAGACGUGA (ssRNA) [Cy5-rpoA-G] | 105 | 125 | 54.9 | 3040 | 280 | – | – | – | – | – |
| AUUAAACGUGA (ssRNA) [IR-rpoA-A] | – | – | – | – | – | 90.9 | 245 | 44.5 | 4090 | 548 |
| AUUAUACGUGA (ssRNA) [IR-rpoA-U] | – | – | – | – | – | 147 | 290 | 96.8 | 3180 | 574 |
| AUUACACGUGA (ssRNA) [Cy5-rpoA] | 145 | 134 | 160 | 3530 | 272 | – | – | – | – | – |
